This test addresses NIK624-947 (C-terminal domain of NIK) (human) (UniProt Q99558). As to the kind of experiment: yeast two-hybrid, against cγc 289-369 as reference.

Where no end group is shown, it is not given here.

Sequence of NIK624-947 (C-terminal domain of NIK) (human) (Q99558 624-947 limits assumed): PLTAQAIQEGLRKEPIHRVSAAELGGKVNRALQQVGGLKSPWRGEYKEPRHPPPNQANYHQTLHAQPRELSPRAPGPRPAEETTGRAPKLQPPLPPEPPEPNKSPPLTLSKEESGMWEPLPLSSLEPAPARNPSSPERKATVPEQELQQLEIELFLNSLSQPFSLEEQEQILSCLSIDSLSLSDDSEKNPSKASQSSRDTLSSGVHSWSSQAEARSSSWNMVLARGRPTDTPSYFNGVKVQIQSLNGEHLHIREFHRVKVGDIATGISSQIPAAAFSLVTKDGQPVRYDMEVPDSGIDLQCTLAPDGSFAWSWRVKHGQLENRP

B1: cγc 289-357 (12 aa deleted from the membrane distal domain) (receptor, not shown: large carriers)
chain: RIPTLKNLEDLVTEYHGNFSAWSGVSKGLAESLQPDYSERLCLVSEIPPKGGALGEGPGASPCNQHSPY
The molecule B1 registered a reduction in affinity of 50%.

B2: cγc 289-325 (44 aa deleted from the ICD) (receptor, not shown: large carriers)
chain: RIPTLKNLEDLVTEYHGNFSAWSGVSKGLAESLQPDY
modifications: also: fused to GAL4 DNA-binding domain (two-hybrid bait), letters not given here
B2: the reduction in affinity came out at 50%.
